# Results: patent US20190177416A1 (NANOMAB TECHNOLOGY, published 2019)
# Biological target: T1, human PD-L1 protein (coated antigen) (human, UniProt Q9NZQ7 19-238, limits assumed)
# T1 construct: Construct not described; also called PD-L1 antigen; antigenic protein PD-L1
# Experiment: PE-ELISA, crude extract on coated PD-L1
# Procedure: (1) From the cell culture dishes containing phage after 3-4 rounds of screening in Example 2, 1000 individual colonies were selected and inoculated into TB medium containing 100 μg/ml of ampicillin (1 liter of TB medium contains 2.3 g of potassium dihydrogen phosphate, 12.52 g of dipotassium hydrogen phosphate, 12 g of peptone, 24 g of yeast extract, 4 ml of glycerol), after growth to log phase, add a final concentration of […] of IPTG, culture at 28° C. overnight. (2) The crude antibody was obtained by the infiltration method, and the antibody was transferred to an antigen-coated ELISA plate and placed at room temperature for 1 hour. (3) Unbound antibody was washed away with PBST, and a mouse anti-HA tag antibody (anti-mouse anti-HA antibody, purchased from Beijing Kangwei Century Biotechnology Co., Ltd.) was added and placed at room temperature for 1 hour. (4) Unbound antibody was washed away with PBST, and anti-mouse alkaline phosphatase conjugate (goat anti-mouse alkaline phosphatase-labeled antibody, purchased from Amytech Co., Ltd.) was added and placed at room temperature for 1 hour. (5) Wash the unbound antibody with PBST, add alkaline phosphatase coloring solution, and read the absorbance at 405 nm on an ELISA apparatus. (6) When the OD value of the sample well is more than 3 times the OD value of the control well (Ratio+/−>3), it is judged as a positive clone hole. (7) The bacteria of the positive clone well were shaken in a LB liquid containing 100 μg per ml to extract a plasmid and perform sequencing.
# T1 sequence (Q9NZQ7 19-238 limits assumed): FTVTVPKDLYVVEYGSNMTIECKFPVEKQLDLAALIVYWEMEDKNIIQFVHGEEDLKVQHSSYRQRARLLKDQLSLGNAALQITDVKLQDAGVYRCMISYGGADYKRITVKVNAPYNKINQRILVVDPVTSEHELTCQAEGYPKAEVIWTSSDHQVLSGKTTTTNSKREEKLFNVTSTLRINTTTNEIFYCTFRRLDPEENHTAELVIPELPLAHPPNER
row,Binder,OD ratio (experimental group (A405 nm)/control group (A405 nm))
1,"SEQ ID NO 44 (VHH, pMECS-expressed; also called VHH numbered 44) VHH: QVQLQESGGGSVRTGGSLRLSCAASTSIYSLNYMAWFSQAPGKGREGVAAVYIDDGRPYYADHVKGRFTISLDTAKNTVYLQMNSLKPEDTAMYYCAAAPGPLSRNYWYTSANYDYWGQGTQVTVSS",> 20
2,"SEQ ID NO 60 (VHH, pMECS-expressed; also called VHH numbered 60) VHH: QVQLQESGGGSVQTGGSLRLSCAASTSIYSMNYMAWFSQAPGKGREGVAAVYIEDGRPYYADSVKGRFTISPDRAKNTVYLQMNSLKPEDTAMYYCAAAPGPLSRNYWYTSANYDYWGQGTQVTVSS",> 20
3,"SEQ ID NO 51 (VHH, pMECS-expressed; also called VHH numbered 51) VHH: QVQLQESGGGSVQTGGSLRLSCTASTSIYSNSYMAWFSQAPGKGREGVAAVYIDDGRPYYADSVKGRFTISLDSAKNTVYLQMNSLKPEDTAMYYCAAAPGPLSRHYWYTSANYDYWGQGTQVTVSS",> 20
4,"SEQ ID NO 80 (VHH, pMECS-expressed; also called VHH numbered 80) VHH: QVQLQESGGGSVQTGGSLRLSCVASTSIYSNNYMAWFSQAPGKGREGVAAVYIDDGRPYYADSVKGRFTISLDSAKNTVYLQMNSLKPEDTAMYYCAAAPGPLSRSYWYTSANYDYWGQGTQVTVSS",> 20
5,"SEQ ID NO 64 (VHH, pMECS-expressed; also called VHH numbered 64) VHH: QVQLQESGGGSVQTGGSLRLSCAASTSIYSNNYMAWFSQAPGKGREGVAAVYIDDGRPYYADSVKGRFTISLDSAKNTVYLQMNSLKPEDTAMYYCAATPGPLSQHYWYTSANYDYWGQGTQVTVSS",> 20
6,"SEQ ID NO 53 (VHH, pMECS-expressed; also called VHH numbered 53) VHH: QVQLQESGGGSVQTGGSLRLSCAASTSIYSNNYMAWFSQAPGKGREGVAAVYIDDGRPYYADSVKGRFTISLDSAKNTVYLQMNSLKPEDTAMYYCAAAPGPLSRNYWYTSANYDYWGQGTQVTVSS",> 20
7,"SEQ ID NO 47 (VHH, pMECS-expressed; also called VHH numbered 47) VHH: QVQLQESGGGSVQTGGSLRLSCTASTSIYNNNYMAWFSQSPGKGREGVAAVYMDDGRPYYADSVKGRFTISLDSAKNTMYLQMNSLKPEDTAMYYCAAAPGPLSRNYWYTSANYDYWGQGTQVTVSS",> 20
8,"SEQ ID NO 78 (VHH, pMECS-expressed; also called VHH numbered 78) VHH: QVQLQESGGGSVQTGGSLRLSCAASTSLYSYNYMAWFSQAPGKGREGVAAVYVGDGRPYYADSVKGRFTISLDSAKNTVYLQMNSLKPEDTAMYYCAAAPGPLSHNYWYTSANYDYWGQGTQVTVSS",> 20
9,"SEQ ID NO 57 (VHH, pMECS-expressed; also called VHH numbered 57) VHH: QVQLQESGGGSVQTGGSLRLSCAASTSIYSINYMAWFSQAPGKGREGVAAVYIDDGRPYYADSVKGRFTISLDSAKNTVYLQMNSLKSEDTAMYYCAAAPGPLSRNYWYTSANYDYWGQGTQVTVSS",> 20
10,"SEQ ID NO 56 (VHH, pMECS-expressed; also called VHH numbered 56) VHH: QVQLQESGGGSVQTGGSLRLSCAASPSIYSANYMAWFSQAPGKGREGVAAVYIGDGRPYYADSVKGRFTISLDSAKSTVYLQMNSLKPEDTAMYYCAAAPGPLSHNYWYTSANYDYWGQGTQVTVSS",> 20
11,"SEQ ID NO 66 (VHH, pMECS-expressed; also called VHH numbered 66) VHH: QVQLQESGGGSVQTGGSLRLSCAASTSIYNNNYMAWFSQAPGKGREGVAAVYVGDGRTYYADSVKGRFTISLDSAKNTVYLQMNSLKPEDTAMYYCAAAPGPLSHNYWYTSANYDYWGQGTQVTVSS",> 20
12,"SEQ ID NO 59 (VHH, pMECS-expressed; also called VHH numbered 59) VHH: QVQLQESGGGSVQTGGSLRLSCACSTSIYSNNYMAWFSQAPGKGREGVAAVYIGDGRPYYTDSVKGRFTISLDSAKNTLYLQMNSLKPEDTAMYYCAAAPGPLSHNYWYTSANYDYWGQGTQVTVSS",> 20
13,"SEQ ID NO 67 (VHH, pMECS-expressed; also called VHH numbered 67) VHH: QVQLQESGGGSVQTGGSLRLSCTASTSIYSNNYMAWFSQAPGKGREGVAAVYIDDGRPYYADSVKGRFTISLDSAKNTVYLQMNSLKPEDTAMYYCAAAPGPLSRNYWYTSANYDYWGQGTQVTVSS",> 20
14,"SEQ ID NO 62 (VHH, pMECS-expressed; also called VHH numbered 62) VHH: QVQLQESGGGSVQAGGSLRLSCAASTSIYSNNYMAWFRQTPGKGREGVAAVYIDDGRPYYADSVKGRFTISLDSAKNTVYLQMNSLKPEDTAMYYCAAAPGPLSHDYWYTSANYDYWGPGTQVTVSS",> 20
15,"SEQ ID NO 76 (VHH, pMECS-expressed; also called VHH numbered 76) VHH: QVQLQESGGGSVQTGGSLRLSCAASTSIYSNNYMAWFRQVPGKGREGVAAVYIDDGRTYYADSVKGRFTISLDSAKNTVYLQMNSLKPEDTAMYYCAAAPGPLSRHYWYTSANYDYWGPGTQVTVSS",> 20
16,"SEQ ID NO 82 (VHH, pMECS-expressed; also called VHH numbered 82) VHH: QVQLQESGGGSVQTGGSLRLSCTASTSIYSNNYMAWFSQAPGKGREGVAAVYIDDGRPYYADSVKGRFTISLDSAKNTVYLQMNSLKPEDTAMYYCAAAPGPLSRNYWYTSANYDYWGQGTQVTVSS",> 20
17,"SEQ ID NO 77 (VHH, pMECS-expressed; also called VHH numbered 77) VHH: QVQLQESGGGSVQTGGSLRLSCTASTSIYSNNYMAWFSQAPGKGREGVAAVYIDDGRPYYADSVKGRFTISLDSAKNTVYLQMNSLKPEDTAMYYCAAAPGPLSRNYWYTSANYDYWGQGTQVTVSS",> 20
18,"SEQ ID NO 49 (VHH, pMECS-expressed; also called VHH numbered 49) VHH: QVQLQESGGGSVQTGGSLRLSCAASTSIYSINYMAWFSQAPGKGREGVAAVYIDDGRPYYADSVKGRFTISLDSAKNTVYLQMNSLKPEDTAMYYCAAAPGPLSRNYWYTSANYDYWGQGTQVTVSS",> 20
19,"SEQ ID NO 55 (VHH, pMECS-expressed; also called VHH numbered 55) VHH: QVQLQESGGGSVQTGGSLRLSCVASTSIFSNNYMAWFSQAPGKGREGVAAVYIGDGRPYYADSVKGRFTISLDSAKNTVYLQMNSLKPEDTAMYYCAAAPGPLSHNYWYTSANYDYWGQGTQVTVSS",> 20
20,"SEQ ID NO 69 (VHH, pMECS-expressed; also called VHH numbered 69) VHH: QVQLQESGGGSVQTGGSLRLSCAASTSIYSNNYMAWFSQAPGKGREGVAAVYIGDGRPYYADSVKGRFTISLDSAKNTVYLQMNSLKPEDTAMYYCAAAPGPLSHNYWYTSANYDYWGQGTQVTVSS",> 20
21,"SEQ ID NO 54 (VHH, pMECS-expressed; also called VHH numbered 54) VHH: QVQLQESGGGSVQTGGSLRLSCAPSTSIYDNNYMAWFSQAPGKGREGVAAIYIDDGRPYYADSVKGRFTISLDSAKNTVYLQMNSLKPEDTAMYYCAAAPGPLSHNYWYTSANYDYWGQGTQVTVSS",> 20
22,"SEQ ID NO 75 (VHH, pMECS-expressed; also called VHH numbered 75) VHH: QVQLQESGGGSVQTGGSLRLSCAASTSIYSNNYMAWFRQAPGKGREGVAAVYIGDGRPYYADSAKGRFTISLDSAKNTVYLHMNSLKPEDTAMYYCAAAPGPLSRHYWYTSANYDYWGPGTQVTVSS",> 20
23,"SEQ ID NO 63 (VHH, pMECS-expressed; also called VHH numbered 63) VHH: QVQLQESGGGSVQTGGSLRLSCAASTSIYSNNYMAWFSQAPGKGREGVAAVYIDDGRPYYADSVKGRFTISLDSAKNTVYLQMNRLKPEDTAMYYCAAAPGPLSHNYWYTSANYDYWGQGTQVTVSS",> 20
24,"SEQ ID NO 81 (VHH, pMECS-expressed; also called VHH numbered 81) VHH: QVQLQESGGGSVQTGGSLRLSCAASTSIYSNNYMAWFSQAPGKGREGVAAVYIDDGRTYYADSVKGRFTISLDSAKNTVYLQMNSLKPEDTAMYYCAAAPGPLSRNYWYTSANYDYWGQGTQVTVSS",> 20
25,"SEQ ID NO 46 (VHH, pMECS-expressed; also called VHH numbered 46) VHH: QVQLQESGGGSVQTGGSLRLSCAASTSIDSNNYMAWFRQAPGKGREGVAAVYIDDGRPYYADSVKGRFTISLDSAKNTVYLQMNSLKPEDTAMYYCAAAPGPLSRHYWYTSANYDYWGPGTQVTVSS",> 20
26,"SEQ ID NO 48 (VHH, pMECS-expressed; also called VHH numbered 48) VHH: QVQLQESGGGSVQTGGSLRLSCAASTSIYSNNYMAWFSQAPGKGREGVAAVYIDDGRTYYADSVKGRFTISLDSAKNTVYLQMNSLKPEDTAMYYCAAAPGPLSHNYWYASANYDYWGQGTQVTVSS",> 20
27,"SEQ ID NO 68 (VHH, pMECS-expressed; also called VHH numbered 68) VHH: QVQLQESGGGSVQTGGSLRLSCTCSTSIYSNNYMAWFSQAPGKGREGVAAVYIGDGRPYYADSVKGRFTISLDSAKNTVYLQMNSLKPEDTAMYYCAAAPGPLSHNYWYTSANYDYWGQGTQVTVSS",> 20
28,"SEQ ID NO 52 (VHH, pMECS-expressed; also called VHH numbered 52) VHH: QVQLQESGGGSVQTGGSLRLSCAASTSIYSNNYMAWFRQAPGKGREGVAAVYVDDGRPYYADSVKGRFTISRDSAKNTVYLQMNSLKPEDTAMYYCAAAPGPLSRHYWYTSANYDYWGPGTQVTVSS",> 20
